Assay [1] has as its target T1, B Lymphocyte Stimulator, soluble form (human) (human, UniProt Q9Y275 134-285, biotinylated with NHS-biotin where used as biotinylated B Lymphocyte Stimulator).
T1 construct: Coated on plastic, captured on streptavidin plates, amine-coupled to a CM5 chip or free in solution, depending on the assay; also called BLyS; immobilized B Lymphocyte Stimulator
The assay is described as follows: phage ELISA.

Assay [2] concerns the target T2, TRAIL (human, UniProt P50591 114-281).
T2 construct: also called TNF-related apoptosis inducing ligand
The assay is described as follows: phage ELISA.

In assay [3] the target is T3, TNF-beta (human, UniProt P01374 35-205).
T3 construct: also called TNFβ; Tumour Necrosis Factor-beta
T3 sequence (looked up): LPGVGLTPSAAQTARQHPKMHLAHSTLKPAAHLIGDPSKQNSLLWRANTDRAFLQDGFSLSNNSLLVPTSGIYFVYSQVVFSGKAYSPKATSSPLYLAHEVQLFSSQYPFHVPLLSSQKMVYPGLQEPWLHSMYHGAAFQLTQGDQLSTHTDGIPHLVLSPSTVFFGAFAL
The assay is described as follows: phage ELISA.

In assay [4] the target is LIGHT (human, UniProt O43557 74-240, limits assumed). In words: phage ELISA.
In assay [5] the target is T4, TNF-alpha (human, UniProt P01375 77-233).
T4 construct: also called TNFα; TNF-α
The assay is described as follows: phage ELISA.

For assay [6], the target named is T5, biotinylated B Lymphocyte Stimulator, soluble form (human, UniProt Q9Y275 134-285, biotinylated with NHS-biotin, molar ratio 20:1 biotin:protein).
T5 construct: also called bio-B Lymphocyte Stimulator; free B Lymphocyte Stimulator
The assay is described as follows: phage scFv, receptor binding inhibition on IM9 cells. As for the experimental part:
All of the unique phage scFvs from panel 2 were assessed for their ability to inhibit B Lymphocyte Stimulator binding to its cognate receptor on IM9 cells. The biotinylation of B Lymphocyte Stimulator, maintenance of IM9 cells and receptor binding inhibition assay were performed as described in Example 3.

T4 sequence (P01375 77-233 limits assumed): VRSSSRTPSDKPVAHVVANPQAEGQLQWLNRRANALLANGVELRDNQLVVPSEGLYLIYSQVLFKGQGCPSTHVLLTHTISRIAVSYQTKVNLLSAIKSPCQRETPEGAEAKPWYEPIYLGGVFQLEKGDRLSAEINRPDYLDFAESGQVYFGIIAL
Sequence of LIGHT (O43557 74-240 limits assumed): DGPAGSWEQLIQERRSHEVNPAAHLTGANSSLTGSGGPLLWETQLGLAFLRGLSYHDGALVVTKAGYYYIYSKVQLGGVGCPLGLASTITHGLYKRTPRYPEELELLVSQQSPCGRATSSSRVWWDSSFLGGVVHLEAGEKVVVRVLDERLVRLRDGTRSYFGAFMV
T2 sequence (P50591 114-281 limits assumed): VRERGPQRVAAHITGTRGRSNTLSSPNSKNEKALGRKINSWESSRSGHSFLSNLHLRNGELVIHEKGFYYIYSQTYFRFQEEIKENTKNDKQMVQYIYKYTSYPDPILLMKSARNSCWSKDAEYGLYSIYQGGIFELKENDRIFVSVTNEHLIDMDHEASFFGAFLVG

B1: I069B07 (scFv)
scFv: QVQLVQSGAEVKKPGASVKVSCKASGYTFTSYGISWVRQAPGQGLEWMGWISAYNGNTNYAQKLQGRVTMTTDTSTSTAYMELRSLRSEDTAVYYCARMEYDILTGYYGGYFDYWGQGTMVTVSSGGGGSGGGGSGGGGSQSVLTQPASVSGSPGQSITISCTGTSSDVGGYNYVSWYQQHPGKAPKLMIYEGSKRPSGVSNRFSGSKSGNTASLTISGLQAEDEADYYCSSYTTRSTRVFGGGTKLTVLG
With B1, the binding result in assay [1] is on record as “binds”; in assay [2], “no binding”; in assay [3] it was “no binding”; in assay [4], “no binding”; in assay [5], “no binding”.

B2: I073F04 (scFv)
scFv: QVQLQQSGAEVKKPGSSVKVSCKASGGTFRSYAFSWVRQAPGQGLEWMGYIVPVFGTATYAQNFQGRVTITADELTTTAFMELSSLTSEDTAVYYCARSLATRPLGMDVWGRGTTVTVSSGGGGSGGGGSGGGGSQSVLTQPASVSGSPGQSITISCTGTSSDVGGYNYVSWYQQHPGKAPKLMIYEGSKRPSGVSNRFSGSKSGNTASLTISGLQAEDEADYYCSSYTTRSTRVFGGGTKLTVLG
With B2, the binding result in assay [6] is “binds”.

B3: I026C04 (scFv)
scFv: QVQLVQSGAEVKKPGSSVKVSCRASGGSFNHAISWVRQAPGRGLEWMGGILPMYGTANYAQKFQGRVTITADKLTNTVYMDLSRLRYEDTAVYYCARELGLSIVGATTGALDMWGKGTLVTVSSGGGGSGGGGSGGGGSAQSVLTQPPSVSAAPGQKVTISCSGSSSNIGNNYVSWYQQIPGTAPKLLIYENNKRPSGIPDRFSGSKSGASATLDITGLQTGDEADYYCGTWHSSQVVFGGGTKLTVLG
For the molecule B3, in assay [6], the binding result is “binds”.

B4: I025B09 (scFv)
scFv: QVHLVQSGAEVKKPGSSVKVSCRASGGSFNHAISWVRQAPGRGLEWMGGILPMYGTANYAQKFQGRVTITADKLTNTVYMDLSRLRYEDTAVYYCARELGLSIVGATTGALDMWGKGTLVTVSSGGGGSGGGGSGGGGSAQSVLTQPPSVSAAPGQKVTISCSGSSSNIGNNYVSWYQQIPGTAPKLLIYENNKRPSGIPDRFSGSKSGASATLDITGLQTGDEADYYCGTWHSSQVVFGGGTKLTVLG
For B4, the binding result in assay [6] is “binds”.

B5: I025B06 (scFv)
scFv: QVQLVQSGAEVKKPGSSVKVSCRASGGSFNHAISWVRQAPGRGLEWMGGILPMYGTANYAQKFQGRVTITADKLTNTVYMDLSRLRYEDTAVYYCARELGLSIVGATTGALDMWGKGTLVTVSSGGGGSGGGGSGGGGSAQSVLTQPPSVSAAPGQKVTISCSGSSSNIGNNYVSWYQQIPGTAPKLLIYENNKRPSGIPDRFSGSKSGASAALDITGLQTGDEADYYCGTWHSSQVVFGGGTKLTVLG
On to B5, for which the binding result in assay [6] is reported as “binds”.

B6: I075A02 (scFv)
scFv: QVQLVQSGAEVKKPGSSVKVSCRASGGSFNHAISWVRQAPGRGLEWMGGILPMYGTANYAQKFQGRVTITADKLTNTVYMDLSRLRYEDTAVYYCARELGLSIVGATTGALDMWGRGTLVTVSSGGGGSGGGGSGGGGSAQSVVTQPPSASGTPGQRVTVSCSGGRSNIGSNTVSWYQQLPGTAPKLLIYSNDERPSGVPDRFSGSNSGTSASLAISGLQSEDEADYYCAAWDDSLNGVAFGGGTKLTVLG
Turning to B6, the binding result in assay [6] is listed as “binds”.

B7: I003C06 (scFv)
scFv: QVQLVQSGAEVKKPGSSVKVSCRASGGSFNHAISWVRQAPGRGLEWMGGILPMYGTANYAQKFQGRVTITADKLTNTVYMDLSRLRYEDTAVYYCARELGLSIVGATTGALDMWGKGTLVTVSSGGGGSGGGGSGGGGSALPVLTQPPSVSVAPGQTATLTCGGTNFGRQSVHWYQQKPGQAPVLAIYHDDVRPSGIPERLSGSKSGNTATLTISRVEAGDEAAYYCQVWDSGSDVVVFGGGTKLTVLG
With B7, the binding result in assay [6] was “binds”.

B8: I068F03 (scFv)
scFv: EVQLVQSGADVKKPGASVKVSCKASHYPFTTYGVSWVRQAPGQGLEWMGWISNYNGHTRYAPKFQGRVTLTTDTLTNTAFMELKSLTSDDTAIYYCARAGNEYGHTERPADYWGKGTMVTVSSGGGGSGGGGSGGGGSAQAVLTQPSSVSGAPGQRVTISCTGSSSNIGAGYDVHWYQQLPGTTPKLLISRNNNRPPGVPDRFSGSKSGTSASLAITGLQAEDEADYYCQSYDTTLRGWVFGGGTKVTVLG
Turning to B8, the binding result is “binds” in assay [1]; “no binding” in assay [2]; “no binding” in assay [3]; “no binding” in assay [4]; “no binding” in assay [5].

B9: I068F03 (scFv)
scFv: EVQLVQSGADVKKPGASVKVSCKASHYPFTTYGVSWVRQAPGQGLEWMGWISNYNGHTRYAPKFQGRVTLTTDTLTNTAFMELKSLTSDDTAIYYCARAGNEYGHTERPADYWGKGTMVTVSSGGGGSGGGGSGGGGSAQAVLTQPSSVSGAPGQRVTISCTGSSSNIGAGYDVHWYQQLPGTTPKLLISRNNNRPPGVPDRFSGSKSGTSASLAITGLQAEDEADYYCQSYDTTLRGWVFGGGTKVTVLG
With B9, the binding result in assay [6] is recorded as “binds”.

B10: I065D04 (scFv)
scFv: QVQLQESGPGLVKPSETLSLTCTVSGGSISSGYYWGWVRQPPGQGLEWIGSIYHSGSTYHNPSLKSRVTISMDTSKNQFSLNLNSVTAADTAVYYCARGKGYYDILTGYYRDNWFDPWGRGTLVTVSSGGGGSGGGGSGGGGSQSVLTQPASVSGSPGQSITISCTGTSSDVGGYNYVSWYQQHPGKAPKLMIYEGSKRPSGVSNRFSGSKSGNTASLTISGLQAEDEADYYCSSYTTRSTRVFGGGTKLTVLG
For B10, the binding result in assay [6] is “binds”.

B11: I078D02 (scFv)
scFv: QVQLQQSGAEVKKPGASVKVSCKASGYTFTSYGISWVRQAPGQGLEWMGWISAYNGNTNYAQKLQGRVTMTTDTSTSTAYMELRSLRSDDTAVYYCARVYYDILTGYNLFFDYWGKGTMVTVSSGGGGSGGGGSGGGGSQSVLTQPASVSGSPGQSITISCTGTSSDVGGYNYVSWYQQHPGKAPKLMIYEGSKRPSGVSNRFSGSKSGNTASLTISGLQAEDEADYYCSSYTTRSTRVFGGGTKLTVLG
For B11, the binding result in assay [6] is given as “binds”.

B12: I078H08 (scFv)
scFv: QVQLVQSAAEVKKPGASVKVSCKASGYTFTSYGISWVRQAPGQGLEWMGWISAYNGNTNYAQKLQGRVTMTTDTSTSTAYMELRSLRSDDTAVYYCARVYYDILTGYNLFFDYWGRGTTVTVSSGGGGSGGGGSGGGGSQSVLTQPASVSGSPGQSITISCTGTSSDVGGYNYVSWYQQHPGKAPKLMIYEGSKRPSGVSNRFSGSKSGNTASLTISGLQAEDEADYYCSSYTTRSTRVFGGGTKLTVLG
Take B12: in assay [6], the binding result is recorded as “binds”.

B13: I078D08 (scFv)
scFv: QVNLRESGGGLVQPGGSLRLSCAASGFTFSSYWMSWVRQAPGKGLEWVANIKQDGSEKYYVDSVKGRFTISRDNSKNTLYLQMNSLRAEDTAVYYCARDAQSYYDILTGYQSYAFDIWGQGTTVTVSSGGGGSGGGGSGGGGSSELTQDPAVSVALGQTVRITCQGDSLRSYYTNWFQQKPGQAPLLVVYAKNKRPSGIPDRFSGSSSGNTASLTITGAQAEDEADYYCHSRDSSGNHVLFGGGTKLTVLG
As to B13, the binding result in assay [6] was “binds”.

B14: I071B03 (scFv)
scFv: QVQLQQSGAEVKKPGASVKVSCKASGYTFTKYTMHWVRQAPGQGPEWMGWINGGSGDTKYSRKFQGRVTITKDTSASAAYMELSSLGSEDTALYYCARATYDPLTGYSFDGFDIWGQGTMVTVSSGGGGSGGGGSGGGGSQSVLTQPASVSGSPGQSITISCTGTSSDVGGYNYVSWYQQHPGKAPKLMIYEGSKRPSGVSNRFSGSKSGNTASLTISGLQAEDEADYYCSSYTTRSTRVFGGGTKLTVLD
Consider B14, for which the binding result in assay [6] is recorded as “binds”.

B15: I068C08 (scFv)
scFv: QVQLQQSGAEVKKPGSSVKVSCQASGGSFSREGISWVRQAPGHGLEWMGRIIPVLGVADYAQKFQGRVKISVDRLTSVAYMELTSLRFEDTAVYYCAREGMNDFINSHHYYTMDAWGQGTLVTVSSGGGGSGGGGSGGGGSAQAVLTQPSSVSGAPGQRVTISCTGSSSNIGAGYDVHWYQQLPGTAPKLLIYGNSNRPSGVPDRFSGSKSGTSASLAITGLQAEDEADYYCQSYDSSLSGSVFGGGTKLTVLG
For B15, the binding result in assay [1] is reported as “binds”; in assay [2], “no binding”; in assay [3] it was “no binding”; in assay [4], “no binding”; in assay [5], “no binding”.

B16: I068C08 (scFv)
scFv: QVQLQQSGAEVKKPGSSVKVSCQASGGSFSREGISWVRQAPGHGLEWMGRIIPVLGVADYAQKFQGRVKISVDRLTSVAYMELTSLRFEDTAVYYCAREGMNDFINSHHYYTMDAWGQGTLVTVSSGGGGSGGGGSGGGGSAQAVLTQPSSVSGAPGQRVTISCTGSSSNIGAGYDVHWYQQLPGTAPKLLIYGNSNRPSGVPDRFSGSKSGTSASLAITGLQAEDEADYYCQSYDSSLSGSVFGGGTKLTVLG
Consider B16, for which, in assay [6], the binding result was “binds”.

The values above are taken from patent US20110293610A1 (published 2011).
